The assay has as its target ABI2 (UniProt Q9NYB9). Briefly: Flag co-IP, ABI2 Western blot. Particulars: reference: wild type, OA-treated; sites S668,T670,S671.

Take “GRAF1 (from UniProt Q9UNA1) AAA (S668A/T670A/S671A), OA-treated”: the “binding against the reference” value is given as “weaker”.

For the origin of these results see publication PMC10713658.
